Our source for the mean reactivity (% of wild type MCAM) values is US20170101470A1 (PROTHENA BIOSCIENCES, published 2017).

Common to all, as to assay: shotgun mutagenesis, immunodetection on BHK-S cells, 0.25 ug/mL, background-subtracted and normalised to WT, triplicate
Assay [1] deals with T1, human MCAM P145A mutant clone on BHK-S cells (human) (UniProt P43121).
T1 sequence: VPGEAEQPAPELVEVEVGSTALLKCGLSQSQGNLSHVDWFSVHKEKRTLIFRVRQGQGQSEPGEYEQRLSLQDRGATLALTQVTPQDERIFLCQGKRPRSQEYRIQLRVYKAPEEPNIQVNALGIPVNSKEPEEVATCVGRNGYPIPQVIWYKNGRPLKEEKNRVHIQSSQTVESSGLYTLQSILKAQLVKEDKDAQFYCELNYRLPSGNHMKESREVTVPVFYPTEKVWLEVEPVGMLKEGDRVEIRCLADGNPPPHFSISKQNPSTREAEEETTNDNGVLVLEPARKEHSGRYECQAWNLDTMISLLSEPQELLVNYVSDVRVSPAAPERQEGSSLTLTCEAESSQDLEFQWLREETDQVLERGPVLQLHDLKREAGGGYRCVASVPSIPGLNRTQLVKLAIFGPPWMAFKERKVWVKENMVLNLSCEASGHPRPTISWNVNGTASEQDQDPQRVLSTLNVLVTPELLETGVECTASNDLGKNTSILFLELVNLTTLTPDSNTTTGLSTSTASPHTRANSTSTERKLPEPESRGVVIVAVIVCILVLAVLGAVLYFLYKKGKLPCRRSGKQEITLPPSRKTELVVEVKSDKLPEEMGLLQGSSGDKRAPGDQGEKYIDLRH

Assay [2] concerns the target T2, human MCAM V241A mutant clone on BHK-S cells (human) (UniProt P43121).
T2 sequence: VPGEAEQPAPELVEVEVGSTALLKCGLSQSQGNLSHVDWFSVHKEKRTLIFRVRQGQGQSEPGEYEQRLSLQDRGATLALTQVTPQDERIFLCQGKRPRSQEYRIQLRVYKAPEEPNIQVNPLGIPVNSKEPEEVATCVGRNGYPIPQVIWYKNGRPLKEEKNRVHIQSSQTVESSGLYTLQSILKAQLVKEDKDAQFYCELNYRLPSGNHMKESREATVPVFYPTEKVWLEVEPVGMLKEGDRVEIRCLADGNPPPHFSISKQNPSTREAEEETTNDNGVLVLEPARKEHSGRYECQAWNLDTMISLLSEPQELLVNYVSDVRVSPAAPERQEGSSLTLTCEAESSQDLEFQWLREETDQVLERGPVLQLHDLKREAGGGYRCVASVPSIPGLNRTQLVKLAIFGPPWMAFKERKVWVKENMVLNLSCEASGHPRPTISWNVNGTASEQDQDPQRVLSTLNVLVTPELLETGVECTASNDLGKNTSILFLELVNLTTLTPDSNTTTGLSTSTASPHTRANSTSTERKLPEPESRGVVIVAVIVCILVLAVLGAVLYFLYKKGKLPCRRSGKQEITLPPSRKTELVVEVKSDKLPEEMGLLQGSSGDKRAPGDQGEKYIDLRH

For assay [3], the target named is T3, human MCAM S206A mutant clone on BHK-S cells (human) (UniProt P43121).
T3 sequence: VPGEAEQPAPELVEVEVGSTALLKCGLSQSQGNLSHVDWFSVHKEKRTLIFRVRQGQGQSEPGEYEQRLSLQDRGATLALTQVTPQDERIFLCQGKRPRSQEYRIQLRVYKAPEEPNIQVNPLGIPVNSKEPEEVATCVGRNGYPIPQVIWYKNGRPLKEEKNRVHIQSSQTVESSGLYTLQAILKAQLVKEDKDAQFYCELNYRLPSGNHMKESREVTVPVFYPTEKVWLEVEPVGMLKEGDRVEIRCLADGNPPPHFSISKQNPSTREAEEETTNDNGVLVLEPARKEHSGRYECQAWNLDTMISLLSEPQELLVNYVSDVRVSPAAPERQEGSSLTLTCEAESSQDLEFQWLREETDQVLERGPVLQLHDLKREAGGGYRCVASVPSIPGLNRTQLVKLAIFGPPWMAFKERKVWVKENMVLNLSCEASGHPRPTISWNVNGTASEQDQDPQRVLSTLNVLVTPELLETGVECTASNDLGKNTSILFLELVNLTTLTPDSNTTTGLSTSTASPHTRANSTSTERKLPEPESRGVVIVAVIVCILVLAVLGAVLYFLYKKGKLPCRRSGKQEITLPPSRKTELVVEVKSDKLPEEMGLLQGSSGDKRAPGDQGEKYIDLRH

The target of assay [4] is T4, human MCAM I207A mutant clone on BHK-S cells (human) (UniProt P43121).
T4 sequence: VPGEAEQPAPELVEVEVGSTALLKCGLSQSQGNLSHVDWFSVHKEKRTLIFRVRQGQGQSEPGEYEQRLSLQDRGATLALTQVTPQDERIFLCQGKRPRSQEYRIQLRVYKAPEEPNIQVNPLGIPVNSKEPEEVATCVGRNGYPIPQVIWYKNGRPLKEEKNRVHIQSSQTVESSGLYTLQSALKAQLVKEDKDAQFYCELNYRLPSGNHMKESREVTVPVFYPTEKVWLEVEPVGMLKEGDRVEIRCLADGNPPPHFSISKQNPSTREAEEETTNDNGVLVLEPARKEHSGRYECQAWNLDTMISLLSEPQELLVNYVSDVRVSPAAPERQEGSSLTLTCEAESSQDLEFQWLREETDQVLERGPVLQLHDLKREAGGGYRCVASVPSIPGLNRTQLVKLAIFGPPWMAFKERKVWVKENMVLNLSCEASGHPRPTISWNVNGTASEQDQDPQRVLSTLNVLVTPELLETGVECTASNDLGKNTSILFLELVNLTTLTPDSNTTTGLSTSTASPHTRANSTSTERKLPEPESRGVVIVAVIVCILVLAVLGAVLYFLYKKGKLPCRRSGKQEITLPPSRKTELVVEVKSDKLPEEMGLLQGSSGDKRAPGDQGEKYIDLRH

B1: rat anti-human MCAM monoclonal antibody clone 2120.4.19 (antibody, V domains shown)
VH: QVQLKESGPGLVQPSQTLSLTCTVSGFSLTSNGVSWVRQPPGKGLEWIAAISSGGTTYYNSAFKSRLSISRNTSKSQVLLKMNSLQTEDTAMYFCARRYGYGWYFDFWGPGTMVTVSS
VL: DIRMTQSPSLLSASVGDRVTLNCKASQNIYNSLAWYQQKLGEGPKVLIPNANSLQTGIPSRFSGSGSGTDFTLTISSLQPEDFATYFCQQFYSGYTFGAGTKLELK
notes: also called m2120
Turning to B1, the mean reactivity (% of wild type MCAM) in assay [1] came to 26.3 % WT; in assay [2], 24.4 % WT; in assay [3], 17.9 % WT; in assay [4], 23.6 % WT.
